To fix the notation:
B1: FBXO31 (other, not shown: small tags and cut ends)
chain: MAVCARLCGVGPSRGCRRRQQRRGPAETAAADSEPDTDPEEERIEASAGVGGGLCAGPSPPPPRCSLLELPPELLVEIFASLPGTDLPSLAQVCTKFRRILHTDTIWRRRCREEYGVCENLRKLEITGVSCRDVYAKLLHRYRHILGLWQPDIGPYGGLLNVVVDGLFIIGWMYLPPHDPHVDDPMRFKPLFRIHLMERKAATVECMYGHKGPHHGHIQIVKKDEFSTKCNQTDHHRMSGGRQEEFRTWLREEWGRTLEDIFHEHMQELILMKFIYTSQYDNCLTYRRIYLPPSRPDDLIKPGLFKGTYGSHGLEIVMLSFHGRRARGTKITGDPNIPAGQQTVEIDLRHRIQLPDLENQRNFNELSRIVLEVRERVRQEQQEGGHEAGEGRGRQGPRESQPSPAQPRAEAPSKGPDGTPGEDGGEPGDAVAAAEQPAQCGQGQPFVLPVGVSSRNEDYPRTCRMCFYGTGLIAGHGFTSPERTPGVFILFDEDRFGFVWLELKSFSLYSRVQATFRNADAPSPQAFDEMLKNIQSLTS
notes: TAP-MS bait
B2: FBXO3 (other, not shown: small tags and cut ends)
chain: MAAMETETAPLTLESLPTDPLLLILSFLDYRDLINCCYVSRRLSQLSSHDPLWRRHCKKYWLISEEEKTQKNQCWKSLFIDTYSDVGRYIDHYAAIKKAWDDLKKYLEPRCPRMVLSLKEGAREEDLDAVEAQIGCKLPDDYRCSYRIHNGQKLVVPGLLGSMALSNHYRSEDLLDVDTAAGGFQQRQGLKYCLPLTFCIHTGLSQYIAVEAAEGRNKNEVFYQCPDQMARNPAAIDMFIIGATFTDWFTSYVKNVVSGGFPIIRDQIFRYVHDPECVATTGDITVSVSTSFLPELSSVHPPHYFFTYRIRIEMSKDALPEKACQLDSRYWRITNAKGDVEEVQGPGVVGEFPIISPGRVYEYTSCTTFSTTSGYMEGYYTFHFLYFKDKIFNVAIPRFHMACPTFRVSIARLEMGPDEYEEMEEEEEEEEEEDEDDDSADMDESDEDDEEERRRRVFDVPIRRRRCSRLF
notes: TAP-MS bait
B3: PER2 (other, not shown: small tags and cut ends)
chain: MNGYAEFPPSPSNPTKEPVEPQPSQVPLQEDVDMSSGSSGHETNENCSTGRDSQGSDCDDSGKELGMLVEPPDARQSPDTFSLMMAKSEHNPSTSGCSSDQSSKVDTHKELIKTLKELKVHLPADKKAKGKASTLATLKYALRSVKQVKANEEYYQLLMSSEGHPCGADVPSYTVEEMESVTSEHIVKNADMFAVAVSLVSGKILYISDQVASIFHCKRDAFSDAKFVEFLAPHDVGVFHSFTSPYKLPLWSMCSGADSFTQECMEEKSFFCRVSVRKSHENEIRYHPFRMTPYLVKVRDQQGAESQLCCLLLAERVHSGYEAPRIPPEKRIFTTTHTPNCLFQDVDERAVPLLGYLPQDLIETPVLVQLHPSDRPLMLAIHKKILQSGGQPFDYSPIRFRARNGEYITLDTSWSSFINPWSRKISFIIGRHKVRVGPLNEDVFAAHPCTEEKALHPSIQELTEQIHRLLLQPVPHSGSSGYGSLGSNGSHEHLMSQTSSSDSNGHEDSRRRRAEICKNGNKTKNRSHYSHESGEQKKKSVTEMQTNPPAEKKAVPAMEKDSLGVSFPEELACKNQPTCSYQQISCLDSVIRYLESCNEAATLKRKCEFPANVPALRSSDKRKATVSPGPHAGEAEPPSRVNSRTGVGTHLTSLALPGKAESVASLTSQCSYSSTIVHVGDKKPQPELEMVEDAASGPESLDCLAGPALACGLSQEKEPFKKLGLTKEVLAAHTQKEEQSFLQKFKEIRKLSIFQSHCHYYLQERSKGQPSERTAPGLRNTSGIDSPWKKTGKNRKLKSKRVKPRDSSESTGSGGPVSARPPLVGLNATAWSPSDTSQSSCPAVPFPAPVPAAYSLPVFPAPGTVAAPPAPPHASFTVPAVPVDLQHQFAVQPPPFPAPLAPVMAFMLPSYSFPSGTPNLPQAFFPSQPQFPSHPTLTSEMASASQPEFPSRTSIPRQPCACPATRATPPSAMGRASPPLFQSRSSSPLQLNLLQLEEAPEGGTGAMGTTGATETAAVGADCKPGTSRDQQPKAPLTRDEPSDTQNSDALSTSSGLLNLLLNEDLCSASGSAASESLGSGSLGCDASPSGAGSSDTSHTSKYFGSIDSSENNHKAKMNTGMEESEHFIKCVLQDPIWLLMADADSSVMMTYQLPSRNLEAVLKEDREKLKLLQKLQPRFTESQKQELREVHQWMQTGGLPAAIDVAECVYCENKEKGNICIPYEEDIPSLGLSEVSDTKEDENGSPLNHRIEEQT
notes: TAP-MS bait
B4: RNF43 (other, not shown: small tags and cut ends)
chain: GFGRTGLVLAAAVESERSAEQKAIIRVIPLKMDPTGKLNLTLEGVFAGVAEITPAEGKLMQSHPLYLCNASDDDNLEPGFISIVKLESPRRAPRPCLSLASKARMAGERGASAVLFDITEDRAAAEQLQQPLGLTWPVVLIWGNDAEKLMEFVYKNQKAHVRIELKEPPAWPDYDVWILMTVVGTIFVIILASVLRIRCRPRHSRPDPLQQRTAWAISQLATRRYQASCRQARGEWPDSGSSCSSAPVCAICLEEFSEGQELRVISCLHEFHRNCVDPWLHQHRTCPLCMFNITEGDSFSQSLGPSRSYQEPGRRLHLIRQHPGHAHYHLPAAYLLGPSRSAVARPPRPGPFLPSQEPGMGPRHHRFPRAAHPRAPGEQQRLAGAQHPYAQGWGLSHLQSTSQHPAACPVPLRRARPPDSSGSGESYCTERSGYLADGPASDSSSGPCHGSSSDSVVNCTDISLQGVHGSSSTFCSSLSSDFDPLVYCSPKGDPQRVDMQPSVTSRPRSLDSVVPTGETQVSSHVHYHRHRHHHYKKRFQWHGRKPGPETGVPQSRPPIPRTQPQPEPPSPDQQVTRSNSAAPSGRLSNPQCPRALPEPAPGPVDASSICPSTSSLFNLQKSSLSARHPQRKRRGGPSEPTPGSRPQDATVHPACQIFPHYTPSVAYPWSPEAHPLICGPPGLDKRLLPETPGPCYSNSQPVWLCLTPRQPLEPHPPGEGPSEWSSDTAEGRPCPYPHCQVLSAQPGSEEELEELCEQAV
notes: TAP-MS bait
B5: FBXO18 (other, not shown: small tags and cut ends)
chain: MRRFKRKHLTAIDCQHLARSHLAVTQPFGQRWTNRDPNHGLYPKPRTKRGSRGQGSQRCIPEFFLAGKQPCTNDMAKSNSVGQDSCQDSEGDMIFPAESSCALPQEGSAGPGSPGSAPPSRKRSWSSEEESNQATGTSRWDGVSKKAPRHHLSVPCTRPREARQEAEDSTSRLSAESGETDQDAGDVGPDPIPDSYYGLLGTLPCQEALSHICSLPSEVLRHVFAFLPVEDLYWNLSLVCHLWREIISDPLFIPWKKLYHRYLMNEEQAVSKVDGILSNCGIEKESDLCVLNLIRYTATTKCSPSVDPERVLWSLRDHPLLPEAEACVRQHLPDLYAAAGGVNIWALVAAVVLLSSSVNDIQRLLFCLRRPSSTVTMPDVTETLYCIAVLLYAMREKGINISNRIHYNIFYCLYLQENSCTQATKVKEEPSVWPGKKTIQLTHEQQLILNHKMEPLQVVKIMAFAGTGKTSTLVKYAEKWSQSRFLYVTFNKSIAKQAERVFPSNVICKTFHSMAYGHIGRKYQSKKKLNLFKLTPFMVNSVLAEGKGGFIRAKLVCKTLENFFASADEELTIDHVPIWCKNSQGQRVMVEQSEKLNGVLEASRLWDNMRKLGECTEEAHQMTHDGYLKLWQLSKPSLASFDAIFVDEAQDCTPAIMNIVLSQPCGKIFVGDPHQQIYTFRGAVNALFTVPHTHVFYLTQSFRFGVEIAYVGATILDVCKRVRKKTLVGGNHQSGIRGDAKGQVALLSRTNANVFDEAVRVTEGEFPSRIHLIGGIKSFGLDRIIDIWILLQPEEERRKQNLVIKDKFIRRWVHKEGFSGFKRYVTAAEDKELEAKIAVVEKYNIRIPELVQRIEKCHIEDLDFAEYILGTVHKAKGLEFDTVHVLDDFVKVPCARHNLPQLPHFRVESFSEDEWNLLYVAVTRAKKRLIMTKSLENILTLAGEYFLQAELTSNVLKTGVVRCCVGQCNNAIPVDTVLTMKKLPITYSNRKENKGGYLCHSCAEQRIGPLAFLTASPEQVRAMERTVENIVLPRHEALLFLVF
notes: TAP-MS bait
B6: USP47 (enzyme, not shown: small tags and cut ends)
chain: MVPGEENQLVPKEDVFWRCRQNIFDEMKKKFLQIENAAEEPRVLCIIQDTTNSKTVNERITLNLPASTPVRKLFEDVANKVGYINGTFDLVWGNGINTADMAPLDHTSDKSLLDANFEPGKKNFLHLTDKDGEQPQILLEDSSAGEDSVHDRFIGPLPREGSGGSTSDYVSQSYSYSSILNKSETGYVGLVNQAMTCYLNSLLQTLFMTPEFRNALYKWEFEESEEDPVTSIPYQLQRLFVLLQTSKKRAIETTDVTRSFGWDSSEAWQQHDVQELCRVMFDALEQKWKQTEQADLINELYQGKLKDYVRCLECGYEGWRIDTYLDIPLVIRPYGSSQAFASVEEALHAFIQPEILDGPNQYFCERCKKKCDARKGLRFLHFPYLLTLQLKRFDFDYTTMHRIKLNDRMTFPEELDMSTFIDVEDEKSPQTESCTDSGAENEGSCHSDQMSNDFSNDDGVDEGICLETNSGTEKISKSGLEKNSLIYELFSVMVHSGSAAGGHYYACIKSFSDEQWYSFNDQHVSRITQEDIKKTHGGSSGSRGYYSSAFASSTNAYMLIYRLKDPARNAKFLEVDEYPEHIKNLVQKERELEEQEKRQREIERNTCKIKLFCLHPTKQVMMENKLEVHKDKTLKEAVEMAYKMMDLEEVIPLDCCRLVKYDEFHDYLERSYEGEEDTPMGLLLGGVKSTYMFDLLLETRKPDQVFQSYKPGEVMVKVHVVDLKAESVAAPITVRAYLNQTVTEFKQLISKAIHLPAETMRIVLERCYNDLRLLSVSSKTLKAEGFFRSNKVFVESSETLDYQMAFADSHLWKLLDRHANTIRLFVLLPEQSPVSYSKRTAYQKAGGDSGNVDDDCERVKGPVGSLKSVEAILEESTEKLKSLSLQQQQDGDNGDSSKSTETSDFENIESPLNERDSSASVDNRELEQHIQTSDPENFQSEERSDSDVNNDRSTSSVDSDILSSSHSSDTLCNADNAQIPLANGLDSHSITSSRRTKANEGKKETWDTAEEDSGTDSEYDESGKSRGEMQYMYFKAEPYAADEGSGEGHKWLMVHVDKRITLAAFKQHLEPFVGVLSSHFKVFRVYASNQEFESVRLNETLSSFSDDNKITIRLGRALKKGEYRVKVYQLLVNEQEPCKFLLDAVFAKGMTVRQSKEELIPQLREQCGLELSIDRFRLRKKTWKNPGTVFLDYHIYEEDINISSNWEVFLEVLDGVEKMKSMSQLAVLSRRWKPSEMKLDPFQEVVLESSSVDELREKLSEISGIPLDDIEFAKGRGTFPCDISVLDIHQDLDWNPKVSTLNVWPLYICDDGAVIFYRDKTEELMELTDEQRNELMKKESSRLQKTGHRVTYSPRKEKALKIYLDGAPNKDLTQD
notes: TAP-MS bait

T2 sequence (O75197 32-1615): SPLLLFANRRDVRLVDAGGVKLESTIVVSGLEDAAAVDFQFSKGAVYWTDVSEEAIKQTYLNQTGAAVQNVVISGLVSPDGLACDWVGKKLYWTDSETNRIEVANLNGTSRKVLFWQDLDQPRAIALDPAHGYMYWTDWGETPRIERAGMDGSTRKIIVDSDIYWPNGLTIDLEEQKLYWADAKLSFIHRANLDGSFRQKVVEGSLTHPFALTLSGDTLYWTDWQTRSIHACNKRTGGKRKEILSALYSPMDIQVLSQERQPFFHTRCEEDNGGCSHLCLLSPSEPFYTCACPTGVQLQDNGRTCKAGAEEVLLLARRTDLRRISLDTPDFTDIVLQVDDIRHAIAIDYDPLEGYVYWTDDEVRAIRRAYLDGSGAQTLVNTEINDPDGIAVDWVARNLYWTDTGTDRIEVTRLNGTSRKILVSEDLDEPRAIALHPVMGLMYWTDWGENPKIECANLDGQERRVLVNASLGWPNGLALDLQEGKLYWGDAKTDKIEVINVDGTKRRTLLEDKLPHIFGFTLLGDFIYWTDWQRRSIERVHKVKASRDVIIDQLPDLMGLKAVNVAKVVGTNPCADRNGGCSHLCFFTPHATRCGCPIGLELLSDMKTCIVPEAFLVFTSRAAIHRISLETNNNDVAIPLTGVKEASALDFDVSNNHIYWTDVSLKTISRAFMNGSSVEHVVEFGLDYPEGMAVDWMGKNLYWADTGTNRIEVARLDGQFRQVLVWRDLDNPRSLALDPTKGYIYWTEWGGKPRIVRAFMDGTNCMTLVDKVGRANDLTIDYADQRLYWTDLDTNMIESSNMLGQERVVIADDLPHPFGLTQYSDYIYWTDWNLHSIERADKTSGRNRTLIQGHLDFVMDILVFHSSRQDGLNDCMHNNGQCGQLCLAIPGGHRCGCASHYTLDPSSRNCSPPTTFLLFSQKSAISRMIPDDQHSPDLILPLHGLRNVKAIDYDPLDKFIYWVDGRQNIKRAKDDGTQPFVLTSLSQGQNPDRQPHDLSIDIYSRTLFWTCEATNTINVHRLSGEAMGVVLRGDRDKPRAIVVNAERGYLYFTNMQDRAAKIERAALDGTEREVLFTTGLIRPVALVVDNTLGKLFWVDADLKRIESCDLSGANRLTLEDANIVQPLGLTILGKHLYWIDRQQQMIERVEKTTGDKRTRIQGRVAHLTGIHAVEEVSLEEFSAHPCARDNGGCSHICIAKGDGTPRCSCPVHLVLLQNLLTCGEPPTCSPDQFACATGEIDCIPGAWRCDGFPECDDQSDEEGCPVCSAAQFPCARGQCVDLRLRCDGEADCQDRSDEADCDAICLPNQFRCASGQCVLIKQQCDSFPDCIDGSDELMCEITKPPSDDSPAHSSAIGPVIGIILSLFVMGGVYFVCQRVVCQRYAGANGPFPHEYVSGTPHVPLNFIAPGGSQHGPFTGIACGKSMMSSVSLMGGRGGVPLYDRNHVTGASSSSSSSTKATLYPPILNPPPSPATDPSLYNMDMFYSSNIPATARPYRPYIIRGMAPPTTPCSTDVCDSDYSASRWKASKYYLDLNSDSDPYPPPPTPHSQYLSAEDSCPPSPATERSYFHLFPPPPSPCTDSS

The target of one experiment is T1, Lgr4 (endogenous, or expression construct whose tag is not stated) (human, UniProt Q9BXB1 25-951).
T1 construct: whole, on cells; Endogenous protein of HEK293T / LS174T cells in TAP-MS; also called endogenous Lgr4
Nature of the experiment: TAP + mass spectrometry, HEK293 cells.
In the case of B1, the binding result is “no binding”.

Take B2: the binding result is recorded as “no binding”.

A further experiment concerns the target T2, LRP5 (endogenous) (human, UniProt O75197 32-1615).
T2 construct: whole, on cells
In words: TAP + mass spectrometry, HEK293 cells.
As to B1, the binding result is recorded as “no binding”.

For the molecule B3, the binding result is given as “no binding”.

For the molecule B2, the binding result is “no binding”.

In the case of B4, the binding result is listed as “no binding”.

Turning to B5, the binding result was “no binding”.

Consider B6, for which the binding result was “no binding”.

In a further experiment the target is T3, LRP6 (endogenous) (human, UniProt O75581 20-1613).
T3 construct: whole, on cells
T3 sequence (O75581 20-1613): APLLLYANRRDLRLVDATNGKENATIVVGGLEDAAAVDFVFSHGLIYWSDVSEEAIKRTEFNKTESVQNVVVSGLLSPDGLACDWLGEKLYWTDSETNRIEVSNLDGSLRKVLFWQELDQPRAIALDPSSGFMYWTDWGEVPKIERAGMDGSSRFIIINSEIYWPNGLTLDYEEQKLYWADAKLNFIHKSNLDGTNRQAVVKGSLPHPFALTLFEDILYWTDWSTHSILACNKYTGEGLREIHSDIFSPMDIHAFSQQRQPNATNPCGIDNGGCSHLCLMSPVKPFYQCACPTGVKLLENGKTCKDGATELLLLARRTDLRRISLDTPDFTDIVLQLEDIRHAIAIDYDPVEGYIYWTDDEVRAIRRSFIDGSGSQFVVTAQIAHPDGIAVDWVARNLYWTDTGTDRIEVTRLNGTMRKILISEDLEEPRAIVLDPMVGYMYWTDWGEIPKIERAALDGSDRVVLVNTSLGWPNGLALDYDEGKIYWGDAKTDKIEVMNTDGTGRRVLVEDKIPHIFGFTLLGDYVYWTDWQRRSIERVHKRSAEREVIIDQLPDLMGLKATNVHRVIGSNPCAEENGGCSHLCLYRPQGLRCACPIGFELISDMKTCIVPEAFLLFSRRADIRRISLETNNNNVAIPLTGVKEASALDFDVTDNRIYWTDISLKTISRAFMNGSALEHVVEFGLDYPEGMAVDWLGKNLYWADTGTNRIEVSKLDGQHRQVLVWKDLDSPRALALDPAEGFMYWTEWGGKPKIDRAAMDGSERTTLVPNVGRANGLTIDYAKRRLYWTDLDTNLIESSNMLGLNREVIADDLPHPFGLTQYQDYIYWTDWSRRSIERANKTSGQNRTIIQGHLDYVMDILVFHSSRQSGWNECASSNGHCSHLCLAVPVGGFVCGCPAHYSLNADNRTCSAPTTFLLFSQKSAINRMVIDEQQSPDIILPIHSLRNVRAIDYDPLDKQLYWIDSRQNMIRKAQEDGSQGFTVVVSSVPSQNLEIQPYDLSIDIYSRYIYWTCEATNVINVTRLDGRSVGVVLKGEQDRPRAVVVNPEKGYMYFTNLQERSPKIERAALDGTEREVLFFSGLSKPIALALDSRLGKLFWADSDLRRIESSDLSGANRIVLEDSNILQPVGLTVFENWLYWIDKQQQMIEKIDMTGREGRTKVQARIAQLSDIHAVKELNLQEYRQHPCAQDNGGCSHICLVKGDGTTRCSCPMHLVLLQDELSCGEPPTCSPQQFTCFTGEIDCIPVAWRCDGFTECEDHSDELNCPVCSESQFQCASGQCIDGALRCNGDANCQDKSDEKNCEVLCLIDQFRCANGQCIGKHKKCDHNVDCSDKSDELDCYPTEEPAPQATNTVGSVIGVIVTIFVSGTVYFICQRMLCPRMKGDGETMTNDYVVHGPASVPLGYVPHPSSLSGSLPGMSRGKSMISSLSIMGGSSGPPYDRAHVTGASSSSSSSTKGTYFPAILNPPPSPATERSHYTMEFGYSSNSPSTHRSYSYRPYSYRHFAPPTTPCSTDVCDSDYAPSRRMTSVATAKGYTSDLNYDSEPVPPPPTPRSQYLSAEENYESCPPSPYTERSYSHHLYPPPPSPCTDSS
Nature of the experiment: TAP + mass spectrometry, HEK293 cells.
Take B1: the binding result is reported as “no binding”.

With B3, the binding result was “no binding”.

B2: the binding result was “no binding”.

Turning to B5, the binding result was “no binding”.

Turning to B6, the binding result was “no binding”.

(Values after patent US20140044713A1 (KONINKLIJKE NEDERLANDSE AKADEMIE VAN WETENSCHAPPEN, published 2014).)
